Laboratory results taken from the supplement of paper PMC10567573.

B1: MCOLN1 (parent)
chain: EEEDLRRRLKYFFMSPCDKFRAKG

Variants of: B1
Test: protein stability index of a GFP-peptide fusion (GPS, HEK-293T) (PSI 1-6); higher = more stable
Details: c terminus: a fixed tail appended
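Also: lentivirally expressed fusions sorted by FACS into six bins by GFP to DsRed ratio, PSI derived from sequencing read proportions per bin multiplied by bin number.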

First: EEEDLIRRLKYFFMSPCDKFRAKG [R6I]
Second: EEEDLGRRLKYFFMSPCDKFRAKG [R6G]
The protein stability index of the first is lower: 2 for the first, 2.99 for the second.

Compared with EEEDLHRRLKYFFMSPCDKFRAKG [R6H], EEEDLERRLKYFFMSPCDKFRAKG [R6E] is higher in protein stability index: 1.97 for the first, 3.48 for the second.

Compared with EEEDLARRLKYFFMSPCDKFRAKG [R6A], EEEDLCRRLKYFFMSPCDKFRAKG [R6C] is lower in protein stability index: 3.18 for the first, 2.85 for the second.

First: EEEDLFRRLKYFFMSPCDKFRAKG [R6F]
Second: EEEDLDRRLKYFFMSPCDKFRAKG [R6D]
The protein stability index of the first is lower: 1.59 for the first, 3.28 for the second.

Going from EEEDFRRRLKYFFMSPCDKFRAKG [L5F] to EEEDQRRRLKYFFMSPCDKFRAKG [L5Q], the protein stability index rises from 3.09 to 3.84.

Going from EEEDNRRRLKYFFMSPCDKFRAKG [L5N] to EEEDYRRRLKYFFMSPCDKFRAKG [L5Y], the protein stability index falls from 3.51 to 2.45.

Going from EEEDARRRLKYFFMSPCDKFRAKG [L5A] to EEEDDRRRLKYFFMSPCDKFRAKG [L5D], the protein stability index rises from 2.91 to 3.43.

Going from EEEDHRRRLKYFFMSPCDKFRAKG [L5H] to EEEDPRRRLKYFFMSPCDKFRAKG [L5P], the protein stability index falls from 3.31 to 3.17.

Going from EEEDSRRRLKYFFMSPCDKFRAKG [L5S] to EEEDCRRRLKYFFMSPCDKFRAKG [L5C], the protein stability index falls from 2.92 to 2.82.

Going from EEEDTRRRLKYFFMSPCDKFRAKG [L5T] to EEEDVRRRLKYFFMSPCDKFRAKG [L5V], the protein stability index falls from 3.65 to 3.09.

Going from EEEDIRRRLKYFFMSPCDKFRAKG [L5I] to EEEDERRRLKYFFMSPCDKFRAKG [L5E], the protein stability index rises from 1.92 to 3.53.

Compared with EEEDMRRRLKYFFMSPCDKFRAKG [L5M], EEEDRRRRLKYFFMSPCDKFRAKG [L5R] is higher in protein stability index: 2.32 for the first, 3.72 for the second.

Going from EEEDGRRRLKYFFMSPCDKFRAKG [L5G] to EEEDKRRRLKYFFMSPCDKFRAKG [L5K], the protein stability index rises from 3.05 to 3.2.

Going from EEEDWRRRLKYFFMSPCDKFRAKG [L5W] to EEEHLRRRLKYFFMSPCDKFRAKG [D4H], the protein stability index falls from 2.91 to 2.04.

Compared with EEERLRRRLKYFFMSPCDKFRAKG [D4R], EEEVLRRRLKYFFMSPCDKFRAKG [D4V] is lower in protein stability index: 2.23 for the first, 1.74 for the second.

Going from EEEKLRRRLKYFFMSPCDKFRAKG [D4K] to EEEPLRRRLKYFFMSPCDKFRAKG [D4P], the protein stability index rises from 1.83 to 2.94.

Compared with EEELLRRRLKYFFMSPCDKFRAKG [D4L], EEEYLRRRLKYFFMSPCDKFRAKG [D4Y] is higher in protein stability index: 2.13 for the first, 2.18 for the second.

Compared with EEEILRRRLKYFFMSPCDKFRAKG [D4I], EEEGLRRRLKYFFMSPCDKFRAKG [D4G] is higher in protein stability index: 1.71 for the first, 3.22 for the second.

Compared with EEEMLRRRLKYFFMSPCDKFRAKG [D4M], EEETLRRRLKYFFMSPCDKFRAKG [D4T] is higher in protein stability index: 1.48 for the first, 2.49 for the second.

Going from EEEELRRRLKYFFMSPCDKFRAKG [D4E] to EEESLRRRLKYFFMSPCDKFRAKG [D4S], the protein stability index falls from 2.08 to 1.42.

Going from EEEQLRRRLKYFFMSPCDKFRAKG [D4Q] to EEENLRRRLKYFFMSPCDKFRAKG [D4N], the protein stability index rises from 1.57 to 2.04.

Compared with EEEWLRRRLKYFFMSPCDKFRAKG [D4W], EEEFLRRRLKYFFMSPCDKFRAKG [D4F] is lower in protein stability index: 1.44 for the first, 1.42 for the second.

Compared with EEEALRRRLKYFFMSPCDKFRAKG [D4A], EEECLRRRLKYFFMSPCDKFRAKG [D4C] is higher in protein stability index: 1.13 for the first, 1.8 for the second.

Going from EYEDLRRRLKYFFMSPCDKFRAKG [E2Y] to EQEDLRRRLKYFFMSPCDKFRAKG [E2Q], the protein stability index rises from 1.94 to 2.27.

First: EMEDLRRRLKYFFMSPCDKFRAKG [E2M]
Second: EAEDLRRRLKYFFMSPCDKFRAKG [E2A]
The protein stability index of the first is higher: 2.58 for the first, 2.37 for the second.

Going from EWEDLRRRLKYFFMSPCDKFRAKG [E2W] to EDEDLRRRLKYFFMSPCDKFRAKG [E2D], the protein stability index falls from 4.34 to 1.92.

Compared with EHEDLRRRLKYFFMSPCDKFRAKG [E2H], EGEDLRRRLKYFFMSPCDKFRAKG [E2G] is lower in protein stability index: 2.72 for the first, 1.67 for the second.

Going from EREDLRRRLKYFFMSPCDKFRAKG [E2R] to EIEDLRRRLKYFFMSPCDKFRAKG [E2I], the protein stability index falls from 3.07 to 2.21.

Going from ETEDLRRRLKYFFMSPCDKFRAKG [E2T] to ENEDLRRRLKYFFMSPCDKFRAKG [E2N], the protein stability index rises from 1.72 to 1.96.

First: ESEDLRRRLKYFFMSPCDKFRAKG [E2S]
Second: EPEDLRRRLKYFFMSPCDKFRAKG [E2P]
The protein stability index of the first is lower: 1.86 for the first, 2.23 for the second.

First: YEEDLRRRLKYFFMSPCDKFRAKG [E1Y]
Second: VEEDLRRRLKYFFMSPCDKFRAKG [E1V]
The protein stability index of the first is higher: 2.27 for the first, 1.51 for the second.

Going from IEEDLRRRLKYFFMSPCDKFRAKG [E1I] to SEEDLRRRLKYFFMSPCDKFRAKG [E1S], the protein stability index rises from 2.19 to 2.24.

First: MEEDLRRRLKYFFMSPCDKFRAKG [E1M]
Second: GEEDLRRRLKYFFMSPCDKFRAKG [E1G]
The protein stability index of the first is lower: 2.08 for the first, 2.46 for the second.

First: WEEDLRRRLKYFFMSPCDKFRAKG [E1W]
Second: REEDLRRRLKYFFMSPCDKFRAKG [E1R]
The protein stability index of the first is higher: 2.2 for the first, 1.36 for the second.

First: KEEDLRRRLKYFFMSPCDKFRAKG [E1K]
Second: TEEDLRRRLKYFFMSPCDKFRAKG [E1T]
The protein stability index of the first is lower: 1.76 for the first, 3.34 for the second.

Compared with NEEDLRRRLKYFFMSPCDKFRAKG [E1N], PEEDLRRRLKYFFMSPCDKFRAKG [E1P] is higher in protein stability index: 1.51 for the first, 2.14 for the second.

Compared with QEEDLRRRLKYFFMSPCDKFRAKG [E1Q], HEEDLRRRLKYFFMSPCDKFRAKG [E1H] is higher in protein stability index: 1.62 for the first, 3.05 for the second.

First: LEEDLRRRLKYFFMSPCDKFRAKG [E1L]
Second: EEFDLRRRLKYFFMSPCDKFRAKG [E3F]
The protein stability index of the first is higher: 2.16 for the first, 2.04 for the second.

Going from EEGDLRRRLKYFFMSPCDKFRAKG [E3G] to EEKDLRRRLKYFFMSPCDKFRAKG [E3K], the protein stability index falls from 2.12 to 1.87.

Going from EEADLRRRLKYFFMSPCDKFRAKG [E3A] to EELDLRRRLKYFFMSPCDKFRAKG [E3L], the protein stability index falls from 1.62 to 1.37.

Going from EEHDLRRRLKYFFMSPCDKFRAKG [E3H] to EECDLRRRLKYFFMSPCDKFRAKG [E3C], the protein stability index rises from 2.33 to 2.65.

Going from EESDLRRRLKYFFMSPCDKFRAKG [E3S] to EETDLRRRLKYFFMSPCDKFRAKG [E3T], the protein stability index falls from 2.9 to 1.52.

First: EEMDLRRRLKYFFMSPCDKFRAKG [E3M]
Second: EEQDLRRRLKYFFMSPCDKFRAKG [E3Q]
The protein stability index of the first is lower: 1.15 for the first, 1.5 for the second.

Going from EENDLRRRLKYFFMSPCDKFRAKG [E3N] to EEDDLRRRLKYFFMSPCDKFRAKG [E3D], the protein stability index rises from 1.91 to 2.41.

Compared with EERDLRRRLKYFFMSPCDKFRAKG [E3R], EEIDLRRRLKYFFMSPCDKFRAKG [E3I] is lower in protein stability index: 2.15 for the first, 1.64 for the second.

Compared with EEPDLRRRLKYFFMSPCDKFRAKG [E3P], EEVDLRRRLKYFFMSPCDKFRAKG [E3V] is higher in protein stability index: 2.25 for the first, 2.83 for the second.

Going from EEYDLRRRLKYFFMSPCDKFRAKG [E3Y] to EEWDLRRRLKYFFMSPCDKFRAKG [E3W], the protein stability index falls from 1.85 to 1.14.
